Laboratory results reported in the supplement of paper PMC11908140.

B1: library; numbered along this chain (parent)
chain: MRKPRAAVGSGHRKQAASQEGRQKHAKNNSQAKPSACDGLARQPEEVVLQASVSSYHLFRDVAEVTAFRGSLLSWYDQEKRDLPWRRRAEDEMDLDRRAYAVWVSEVMLQQTQVATVINYYTGWMQKWPTLQDLASASLEEVNQLWAGLGYYSRGRRLQEGARKVVEELGGHMPRTAETLQQLLPGVGRYTAGAIASIAFGQATGVVDGNVARVLCRVRAIGADPSSTLVSQQLWGLAQQLVDPARPGDFNQAAMELGATVCTPQRPLCSQCPVESLCRARQRVEQEQLLASGSLSGSPDVEECAPNTGQCHLCLPPSEPWDQTLGVVNFPRKASRKPPREESSATCVLEQPGALGAQILLVQRPNSGLLAGLWEFPSVTWEPSEQLQRKALLQELQRWAGPLPATHLRHLGEVVHTFSHIKLTYQVYGLALEGQTPVTTVPPGARWLTQEEFHTAAVSTAMKKVFRVYQGQQPGTCMGSKRSQVSSPCSRKKPRMGQQVLDNFFRSHISTDAHSLNSAAQ

Variants of: B1
Test: 8OG:A repair function score (normalized; synonymous = 0, nonsense = -1) (normalized log-likelihood score); higher = more repair activity (WT-like)
Settings: with 8OG:A DNA repair reporter (GFP) in HEK-293 MUTYH KO cells
In short: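 MUTYH knockout HEK-293 cells carrying lentiviral MUTYH cDNA NNN codon-scan libraries were grown with 10 pg/ml doxycycline and co-transfected with mCherry and a GFP reporter of 8OG:A repair. Viable mCherry+ cells were sorted at 72 h into GFP+ (repair) and GFP− bins, with three replicates per tile, and tile amplicons were sequenced. Rosace fitness scores for each tile were turned into a normalized repair function score anchored on the synonymous and nonsense distributions. Synonymous medians were set to 0 and nonsense medians to -1, and variants below 300 counts per million at the start were dropped.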

Row | Variant | 8OG:A repair function score
1 | MRKPRAAVGSGHRKQAASQEGRQKHAKNNSQAKPSACDGLARQPEEVVLQASVSSYHLFRDVAEVTAFRGSLLSWYDQEKRDLPWRRRAEDEMDLDRRAYAVWVSEVMLQQTQVATVINYYTGWMQKWPTLQDLASASLEEVNQLWAGLGYYSRGRRLQEGARKVVEELGGHMPRTAETLQQLLPGVGRYTAGAIASIAFGQATGVVDGNVARVLCRVRAIGADPSSTLVSQQLWGLAQQLVDPARPGDFNQAAMELGATVCTPQRPLCSQCPVESLCRARQRVEQEQLLASGSLSGSPDVEECAPNTGQCHLCLPPSEPWDQTLGVVNFPRKASRKPPREESSATCVLEQPGALGAQILLVQRPNSGLLAGLWEFPSVTWEPSEQLQRKALLQELQRWAGPLPATHLRHLGEVVHTFSHIKLTYQVYGLALEGQTPVTTVPPGARWLTQEEFHTAAVSTAMKKEFRVYQGQQPGTCMGSKRSQVSSPCSRKKPRMGQQVLDNFFRSHISTDAHSLNSAAQ [V465E] | -1.42
2 | MRKPRAAVGSGHRKQAASQEGRQKHAKNNSQAKPSACDGLARQPEEVVLQASVSSYHLFRDVAEVTAFRGSLLSWYDQEKRDLPWRRRAEDEMDLDRRAYAVWVSEVMLQQTQVATVINYYTGWMQKWPTLQDLASASLEEVNQLWAGLGYYSRGRRLQEGARKVVEELGGHMPRTAETLQQLLPGVGRYTAGAIASIAFGQATGVVDGNVARVLCRVRAIGADPSSTLVSQQLWGLAQQLVDPARPGDFNQAAMELGATVCTPQRPLCSQCPVESLCRARQRVEQEQLLASGSLSGSPDVEECAPNTGQCHLCLPPSEPWDQTLGVVNFPRKASRKPPREESSATCVLEQPGALGAQILLVQRPNSGLLAGLWEFPSVTWEPSEQLQRKALLQELQRWAGPLPATHLRHLGEVVHTFSHIKLTYQVYGLALEGQTPVTTVPPGARWLTQEEFHTAAVSTAMKKGFRVYQGQQPGTCMGSKRSQVSSPCSRKKPRMGQQVLDNFFRSHISTDAHSLNSAAQ [V465G] | -0.801
3 | MRKPRAAVGSGHRKQAASQEGRQKHAKNNSQAKPSACDGLARQPEEVVLQASVSSYHLFRDVAEVTAFRGSLLSWYDQEKRDLPWRRRAEDEMDLDRRAYAVWVSEVMLQQTQVATVINYYTGWMQKWPTLQDLASASLEEVNQLWAGLGYYSRGRRLQEGARKVVEELGGHMPRTAETLQQLLPGVGRYTAGAIASIAFGQATGVVDGNVARVLCRVRAIGADPSSTLVSQQLWGLAQQLVDPARPGDFNQAAMELGATVCTPQRPLCSQCPVESLCRARQRVEQEQLLASGSLSGSPDVEECAPNTGQCHLCLPPSEPWDQTLGVVNFPRKASRKPPREESSATCVLEQPGALGAQILLVQRPNSGLLAGLWEFPSVTWEPSEQLQRKALLQELQRWAGPLPATHLRHLGEVVHTFSHIKLTYQVYGLALEGQTPVTTVPPGARWLTQEEFHTAAVSTAMKKFFRVYQGQQPGTCMGSKRSQVSSPCSRKKPRMGQQVLDNFFRSHISTDAHSLNSAAQ [V465F] | -0.73
4 | MRKPRAAVGSGHRKQAASQEGRQKHAKNNSQAKPSACDGLARQPEEVVLQASVSSYHLFRDVAEVTAFRGSLLSWYDQEKRDLPWRRRAEDEMDLDRRAYAVWVSEVMLQQTQVATVINYYTGWMQKWPTLQDLASASLEEVNQLWAGLGYYSRGRRLQEGARKVVEELGGHMPRTAETLQQLLPGVGRYTAGAIASIAFGQATGVVDGNVARVLCRVRAIGADPSSTLVSQQLWGLAQQLVDPARPGDFNQAAMELGATVCTPQRPLCSQCPVESLCRARQRVEQEQLLASGSLSGSPDVEECAPNTGQCHLCLPPSEPWDQTLGVVNFPRKASRKPPREESSATCVLEQPGALGAQILLVQRPNSGLLAGLWEFPSVTWEPSEQLQRKALLQELQRWAGPLPATHLRHLGEVVHTFSHIKLTYQVYGLALEGQTPVTTVPPGARWLTQEEFHTAAVSTAMKKCFRVYQGQQPGTCMGSKRSQVSSPCSRKKPRMGQQVLDNFFRSHISTDAHSLNSAAQ [V465C] | 0.0124
5 | MRKPRAAVGSGHRKQAASQEGRQKHAKNNSQAKPSACDGLARQPEEVVLQASVSSYHLFRDVAEVTAFRGSLLSWYDQEKRDLPWRRRAEDEMDLDRRAYAVWVSEVMLQQTQVATVINYYTGWMQKWPTLQDLASASLEEVNQLWAGLGYYSRGRRLQEGARKVVEELGGHMPRTAETLQQLLPGVGRYTAGAIASIAFGQATGVVDGNVARVLCRVRAIGADPSSTLVSQQLWGLAQQLVDPARPGDFNQAAMELGATVCTPQRPLCSQCPVESLCRARQRVEQEQLLASGSLSGSPDVEECAPNTGQCHLCLPPSEPWDQTLGVVNFPRKASRKPPREESSATCVLEQPGALGAQILLVQRPNSGLLAGLWEFPSVTWEPSEQLQRKALLQELQRWAGPLPATHLRHLGEVVHTFSHIKLTYQVYGLALEGQTPVTTVPPGARWLTQEEFHTAAVSTAMKKHFRVYQGQQPGTCMGSKRSQVSSPCSRKKPRMGQQVLDNFFRSHISTDAHSLNSAAQ [V465H] | -0.79
6 | MRKPRAAVGSGHRKQAASQEGRQKHAKNNSQAKPSACDGLARQPEEVVLQASVSSYHLFRDVAEVTAFRGSLLSWYDQEKRDLPWRRRAEDEMDLDRRAYAVWVSEVMLQQTQVATVINYYTGWMQKWPTLQDLASASLEEVNQLWAGLGYYSRGRRLQEGARKVVEELGGHMPRTAETLQQLLPGVGRYTAGAIASIAFGQATGVVDGNVARVLCRVRAIGADPSSTLVSQQLWGLAQQLVDPARPGDFNQAAMELGATVCTPQRPLCSQCPVESLCRARQRVEQEQLLASGSLSGSPDVEECAPNTGQCHLCLPPSEPWDQTLGVVNFPRKASRKPPREESSATCVLEQPGALGAQILLVQRPNSGLLAGLWEFPSVTWEPSEQLQRKALLQELQRWAGPLPATHLRHLGEVVHTFSHIKLTYQVYGLALEGQTPVTTVPPGARWLTQEEFHTAAVSTAMKKAFRVYQGQQPGTCMGSKRSQVSSPCSRKKPRMGQQVLDNFFRSHISTDAHSLNSAAQ [V465A] | -0.0879
